Biological target: PTEN (WT), recombinant insect-cell purified (UniProt P60484)
Assay: SPR

fold decrease in affinity against P-Rex2 (WT) [fold]	Substance
7	P-Rex2 (904-912) P-Rex1 sequence-swap mutant
4	P-Rex2 (674-683) P-Rex1 sequence-swap mutant
6	P-Rex2 (922-931) P-Rex1 sequence-swap mutant

From publication doi:10.1101/2020.04.11.036434
